Patent publication US20140271457A1 (AbbVie / Abbott, published 2014)
Positions count from the first letter of the chain named.

B1: DVD2687 (bispecific antibody, IgG1)
VH: EVQLVESGGGLVQPGGSLRLSCAASGFTFSNYGVTWVRQAPGKGLEWVSMIWADGSTHYASSVKGRFTISRDNSKNTLYLQMNSLRAEDTAVYYCAREWQHGPVAYWGQGTLVTVSSASTKGPSVFPLAPEVTLRESGPGLVKPTQTLTLTCTLYGFSLSTSDMGVDWIRQPPGKGLEWLAHIWWDDVKRYNPALKSRLTISKDTSKNQVVLKLTSVDPVDTATYYCARTVSSGYIYYAMDYWGQGTLVTVSS
VL: DIQMTQSPSSLSASVGDRVTITCRASQLVSSAVAWYQQKPGKAPKLLIYWASARHTGVPSRFSGSGSGTDFTLTISSLQPEDFATYYCQQHYKTPFTFGQGTKLEIKRTVAAPDIQMTQSPSSLSASVGDRVTISCRASQDIRNYLNWYQQKPGKAPKLLIFYTSKLHSGVPSRFSGSGSGTDYTLTISSLQPEDIATYYCQQGLTPPLTFGGGTKVEIKR
notes: DVD-Ig; wt hIgG1 + kappa constants
B2: DVD2737 (bispecific antibody, IgG1)
VH: B1 VH with T35E, M50G, S61D, S62T, G65S
VL: B1 VL with R24K, A53T, R54L, K93R
notes: as for B1
B3: DVD2691 (bispecific antibody, IgG1)
VH: EVTLRESGPGLVKPTQTLTLTCTLYGFSLSTSDMGVDWIRQPPGKGLEWLAHIWWDDVKRYNPALKSRLTISKDTSKNQVVLKLTSVDPVDTATYYCARTVSSGYIYYAMDYWGQGTLVTVSSASTKGPEVQLVESGGGLVQPGGSLRLSCAASGFTFSNYGVTWVRQAPGKGLEWVSMIWADGSTHYASSVKGRFTISRDNSKNTLYLQMNSLRAEDTAVYYCAREWQHGPVAYWGQGTLVTVSS
VL: DIQMTQSPSSLSASVGDRVTISCRASQDIRNYLNWYQQKPGKAPKLLIFYTSKLHSGVPSRFSGSGSGTDYTLTISSLQPEDIATYYCQQGLTPPLTFGGGTKVEIKRTVAAPSVFIFPPDIQMTQSPSSLSASVGDRVTITCRASQLVSSAVAWYQQKPGKAPKLLIYWASARHTGVPSRFSGSGSGTDFTLTISSLQPEDFATYYCQQHYKTPFTFGQGTKLEIKR
notes: as for B1
B4: DVD3008 (bispecific antibody, IgG1)
VH: EVQLVQSGAEVKKPGASVKVSCKASGYTFNNYGIIWVRQAPGQGLEWMGWINTYTGKPTYAQKFQGRVTMTTDTSTSTAYMELSSLRSEDTAVYYCARKLFNTVAVTDNAMDYWGQGTTVTVSSGGGGSGGGGSEVTLRESGPGLVKPTQTLTLTCTLYGFSLSTSDMGVDWIRQPPGKGLEWLAHIWWDDVKRYNPALKSRLTISKDTSKNQVVLKLTSVDPVDTATYYCARTVSSGYIYYAMDYWGQGTLVTVSS
VL: DIQMTQSPSSLSASVGDRVTITCRASQDIENYLNWYQQKPGKAPKLLIYYTSRLQSGVPSRFSGSGSGTDFTLTISSLQPEDFATYFCQQGNTQPPTFGQGTKLEIKRGGSGGGGSGDIQMTQSPSSLSASVGDRVTISCRASQDIRNYLNWYQQKPGKAPKLLIFYTSKLHSGVPSRFSGSGSGTDYTLTISSLQPEDIATYYCQQGLTPPLTFGGGTKVEIKR
notes: as for B1
B5: DVD3009 (bispecific antibody, IgG1)
VH: EVQLVQSGAEVKKPGASVKVSCKASGYTFNNYGIIWVRQAPGQGLEWMGWINTYTGKPTYAQKFQGRVTMTTDTSTSTAYMELSSLRSEDTAVYYCARKLFNTVAVTDNAMDYWGQGTTVTVSSASTKGPEVTLRESGPGLVKPTQTLTLTCTLYGFSLSTSDMGVDWIRQPPGKGLEWLAHIWWDDVKRYNPALKSRLTISKDTSKNQVVLKLTSVDPVDTATYYCARTVSSGYIYYAMDYWGQGTLVTVSS
VL: DIQMTQSPSSLSASVGDRVTITCRASQDIENYLNWYQQKPGKAPKLLIYYTSRLQSGVPSRFSGSGSGTDFTLTISSLQPEDFATYFCQQGNTQPPTFGQGTKLEIKRTVAAPDIQMTQSPSSLSASVGDRVTISCRASQDIRNYLNWYQQKPGKAPKLLIFYTSKLHSGVPSRFSGSGSGTDYTLTISSLQPEDIATYYCQQGLTPPLTFGGGTKVEIKR
notes: as for B1
B6: DVD3083 (bispecific antibody, IgG1)
VH: EVQLVESGGGLVQPGGSLRLSCAASGFTFSNYGVTWVRQAPGKGLEWVSMIWADGSTHYASSVKGRFTISRDNSKNTLYLQMNSLRAEDTAVYYCAREWQHGPVAYWGQGTLVTVSSGGGGSGGGGSEVQLVQSGAEVKKPGASVKVSCKASGYTFTTYGVSWVRQAPGQGLEWMGEIYPGNYNTYYNEKFRGRVTMTTDTSTSTAYMELRSLRSDDTAVYYCARWRTSYFSDYGYFDYWGQGTTVTVSS
VL: DIQMTQSPSSLSASVGDRVTITCRASQLVSSAVAWYQQKPGKAPKLLIYWASARHTGVPSRFSGSGSGTDFTLTISSLQPEDFATYYCQQHYKTPFTFGQGTKLEIKRGGSGGGGSGDVVMTQSPLSLPVTLGQPASISCRSSQSLVHSHGNTYLHWYQQRPGQSPRLLIYTVSNRFSGVPDRFSGSGSGTDFTLKISRVEAEDVGVYYCSQSTHVPYTFGGGTKVEIKR
notes: as for B1
B7: DVD3093 (bispecific antibody, IgG1)
VH: B6 VH with T35E, M50G, S61D, S62T, G65S
VL: B6 VL with R24K, A53T, R54L, K93R
notes: as for B1
B8: DVD3084 (bispecific antibody, IgG1)
VH: EVQLVESGGGLVQPGGSLRLSCAASGFTFSNYGVTWVRQAPGKGLEWVSMIWADGSTHYASSVKGRFTISRDNSKNTLYLQMNSLRAEDTAVYYCAREWQHGPVAYWGQGTLVTVSSASTKGPEVQLVQSGAEVKKPGASVKVSCKASGYTFTTYGVSWVRQAPGQGLEWMGEIYPGNYNTYYNEKFRGRVTMTTDTSTSTAYMELRSLRSDDTAVYYCARWRTSYFSDYGYFDYWGQGTTVTVSS
VL: DIQMTQSPSSLSASVGDRVTITCRASQLVSSAVAWYQQKPGKAPKLLIYWASARHTGVPSRFSGSGSGTDFTLTISSLQPEDFATYYCQQHYKTPFTFGQGTKLEIKRTVAAPDVVMTQSPLSLPVTLGQPASISCRSSQSLVHSHGNTYLHWYQQRPGQSPRLLIYTVSNRFSGVPDRFSGSGSGTDFTLKISRVEAEDVGVYYCSQSTHVPYTFGGGTKVEIKR
notes: as for B1
B9: DVD3094 (bispecific antibody, IgG1)
VH: B8 VH with T35E, M50G, S61D, S62T, G65S
VL: B8 VL with R24K, A53T, R54L, K93R
notes: as for B1
B10: DVD3086 (bispecific antibody, IgG1)
VH: B8 VH
VL: DIQMTQSPSSLSASVGDRVTITCRASQLVSSAVAWYQQKPGKAPKLLIYWASARHTGVPSRFSGSGSGTDFTLTISSLQPEDFATYYCQQHYKTPFTFGQGTKLEIKRTVAAPSVFIFPPDVVMTQSPLSLPVTLGQPASISCRSSQSLVHSHGNTYLHWYQQRPGQSPRLLIYTVSNRFSGVPDRFSGSGSGTDFTLKISRVEAEDVGVYYCSQSTHVPYTFGGGTKVEIKR
notes: as for B1
B11: DVD3096 (bispecific antibody, IgG1)
VH: B8 VH with T35E, M50G, S61D, S62T, G65S
VL: B10 VL with R24K, A53T, R54L, K93R
notes: as for B1
B12: DVD3087 (bispecific antibody, IgG1)
VH: EVQLVESGGGLVQPGGSLRLSCAASGFTFSNYGVTWVRQAPGKGLEWVSMIWADGSTHYASSVKGRFTISRDNSKNTLYLQMNSLRAEDTAVYYCAREWQHGPVAYWGQGTLVTVSSASTKGPSVFPLAPEVQLVQSGAEVKKPGASVKVSCKASGYTFTTYGVSWVRQAPGQGLEWMGEIYPGNYNTYYNEKFRGRVTMTTDTSTSTAYMELRSLRSDDTAVYYCARWRTSYFSDYGYFDYWGQGTTVTVSS
VL: B8 VL
notes: as for B1
B13: DVD3097 (bispecific antibody, IgG1)
VH: B12 VH with T35E, M50G, S61D, S62T, G65S
VL: B8 VL with R24K, A53T, R54L, K93R
notes: as for B1
B14: DVD3092 (bispecific antibody, IgG1)
VH: EVQLVQSGAEVKKPGASVKVSCKASGYTFTTYGVSWVRQAPGQGLEWMGEIYPGNYNTYYNEKFRGRVTMTTDTSTSTAYMELRSLRSDDTAVYYCARWRTSYFSDYGYFDYWGQGTTVTVSSASTKGPSVFPLAPEVQLVESGGGLVQPGGSLRLSCAASGFTFSNYGVTWVRQAPGKGLEWVSMIWADGSTHYASSVKGRFTISRDNSKNTLYLQMNSLRAEDTAVYYCAREWQHGPVAYWGQGTLVTVSS
VL: DVVMTQSPLSLPVTLGQPASISCRSSQSLVHSHGNTYLHWYQQRPGQSPRLLIYTVSNRFSGVPDRFSGSGSGTDFTLKISRVEAEDVGVYYCSQSTHVPYTFGGGTKVEIKRTVAAPDIQMTQSPSSLSASVGDRVTITCRASQLVSSAVAWYQQKPGKAPKLLIYWASARHTGVPSRFSGSGSGTDFTLTISSLQPEDFATYYCQQHYKTPFTFGQGTKLEIKR
notes: as for B1

Molecular target: Recombinant Human IL-13 (human, UniProt P35225 35-146, limits assumed)
Sequence (P35225 35-146 limits assumed): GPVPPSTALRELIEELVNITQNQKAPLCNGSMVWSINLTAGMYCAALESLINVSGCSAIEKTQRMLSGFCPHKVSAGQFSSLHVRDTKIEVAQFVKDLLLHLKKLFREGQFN
Assay: Biacore SPR
Description: The BIACORE assay (GE, Healthcare Piscataway, N.J.) determined the affinity of antibodies or DVD-Ig with kinetic measurements of on-rate and off-rate constants. Binding of antibodies or DVD-Ig proteins to a target antigen (for example, a purified recombinant target antigen) was determined by surface plasmon resonance-based measurements with a Biacore T200 using running HBS-EP+buffer from GE Healthcare at 25° C. All chemicals were obtained from GE Healthcare or otherwise from a different source as described in the text. For example, approximately 5000 RU of goat anti-mouse IgG, (Fcγ), fragment specific polyclonal antibody (Pierce Biotechnology Inc, Rockford, Ill.) diluted in 10 mM sodium acetate (pH 4.5) was directly immobilized across a CM5 research grade biosensor chip using a standard amine coupling kit according to manufacturer's instructions. Unreacted moieties on the biosensor surface were blocked with ethanolamine. Modified carboxymethyl dextran surface in flowcell 1 was used as a reference surface. Rate constants were derived by making kinetic binding measurements at different antigen concentrations ranging from 0.8-100 nM. Binding was recorded as a function of time and kinetic rate constants were calculated. In this assay, association rate was evaluated for 5 min and dissociation was monitored for 10 min. For kinetic screening analysis, rate equations derived from the 1:1 binding model were fitted simultaneously to association and dissociation phases of all injections (using global fit analysis with Rmax fit locally to account for capture variations) with the use of Biaevaluation software. Purified antibodies or DVD-Ig proteins were diluted in HEPES-buffered saline for capture across goat anti-mouse IgG specific reaction surfaces. Antibodies or DVD-Ig proteins to be captured as a ligand were injected over reaction matrices at a flow rate of 5 μl/minute. The association and dissociation rate constants, kₒₙ (M⁻¹ s⁻¹) and koff (s⁻¹) were determined under a continuous flow rate of 50 μl/minute. Rate constants were derived by making kinetic binding measurements at different antigen concentrations ranging from 0.8-100 nM. Binding was recorded as a function of time and kinetic rate constants were calculated. In this assay, association rate was evaluated for 5 min and dissociation was monitored for 10 min.

| Binder | Kd [nM] | koff [s⁻¹] | kon [M⁻¹ s⁻¹] |
| --- | --- | --- | --- |
| B1 | 0.47 | 5e-05 | 110000 |
| B2 | 0.5 | 6.2e-05 | 120000 |
| B3 | 0.13 | 0.00013 | 950000 |
| B4 | 0.14 | 1.5e-05 | 110000 |
| B5 | 0.36 | 3.2e-05 | 87000 |
| B6 | 0.038 | 2e-06 | 52000 |
| B7 | < 0.02 | < 1e-06 | 51000 |
| B8 | 0.012 | 1.1e-06 | 87000 |
| B9 | 0.067 | 5.9e-06 | 89000 |
| B10 | < 0.015 | < 1e-06 | 65000 |
| B11 | 0.00076 | 5.3e-08 | 70000 |
| B12 | < 0.02 | < 1e-06 | 51000 |
| B13 | < 0.021 | < 1e-06 | 48000 |
| B14 | 0.044 | 2.5e-05 | 580000 |
